Data on 17 molecules can be found in patent US20240368263A1 (PROMETHEUS BIOSCIENCES, published 2024).

To fix the notation:
B1: H3-7 (V102K) Fab (Fab, V domains shown)
VH: QVQLVQSGAEVKKPGASVKVSCKASGFDIQDTYMHWVRQAPGQGLEWMGRIDPASGHTKYDPKFQVRVTMTRDTSTSTVYMELSSLRSEDTAVYYCARSGGLPDKWGQGTTVTVSS
VL: EIVLTQSPGTLSLSPGERATLSCRASSSVSYMYWYQQKPGQAPRLLIYATSNLASGIPDRFSGSGSGTDFTLTISRLEPEDFAVYYCQQWSGNPRTFGGGTKLEIK
notes: Fab; also called 21-3 V102K heavy chain with 18-7 light chain
B2: H3-7 (V102M) Fab (Fab, V domains shown)
VH: B1 VH with K105M
VL: B1 VL
notes: Fab; also called 21-3 V102M heavy chain with 18-7 light chain
B3: L3-4 (S92H) Fab (Fab, V domains shown)
VH: B1 VH with K105V
VL: B1 VL with S91H
notes: Fab; also called 18-7 S92H light chain with 21-3 heavy chain
B4: H3-7 (V102W) Fab (Fab, V domains shown)
VH: B1 VH with K105W
VL: B1 VL
notes: Fab; also called 21-3 V102W heavy chain with 18-7 light chain
B5: L3-4 (S92E) Fab (Fab, V domains shown)
VH: B1 VH with K105V
VL: B1 VL with S91E
notes: Fab; also called 18-7 S92E light chain with 21-3 heavy chain
B6: H3-7 (V102Q) Fab (Fab, V domains shown)
VH: B1 VH with K105Q
VL: B1 VL
notes: Fab; also called 21-3 V102Q heavy chain with 18-7 light chain
B7: L3-4 (S92D) Fab (Fab, V domains shown)
VH: B1 VH with K105V
VL: B1 VL with S91D
notes: Fab; also called 18-7 S92D light chain with 21-3 heavy chain
B8: clone 47, modified IgG1 / kappa (antibody)
heavy: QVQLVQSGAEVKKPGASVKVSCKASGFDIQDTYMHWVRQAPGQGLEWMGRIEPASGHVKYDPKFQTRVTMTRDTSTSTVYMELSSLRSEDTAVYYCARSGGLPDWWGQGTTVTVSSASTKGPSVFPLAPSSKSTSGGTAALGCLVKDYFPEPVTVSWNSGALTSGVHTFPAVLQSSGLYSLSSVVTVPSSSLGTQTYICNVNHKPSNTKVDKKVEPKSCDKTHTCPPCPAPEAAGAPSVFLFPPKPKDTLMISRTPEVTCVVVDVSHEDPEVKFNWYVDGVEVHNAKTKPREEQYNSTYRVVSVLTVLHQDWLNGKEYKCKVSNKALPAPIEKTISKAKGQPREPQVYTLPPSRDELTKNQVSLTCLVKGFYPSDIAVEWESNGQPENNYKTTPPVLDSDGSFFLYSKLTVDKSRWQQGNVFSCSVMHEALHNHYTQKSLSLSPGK
light: EIVLTQSPGTLSLSPGERATLSCRASSSVSYMYWYQQKPGQAPRLLIYATSNLASGIPDRFSGSGSGTDFTLTISRLEPEDFAVYYCQQWEGNPRTFGGGTKLEIKRTVAAPSVFIFPPSDEQLKSGTASVVCLLNNFYPREAKVQWKVDNALQSGNSQESVTEQDSKDSTYSLSSTLTLSKADYEKHKVYACEVTHQGLSSPVTKSFNRGEC
B9: clone 14, IgG2 / kappa (antibody)
heavy: QVQLVQSGAEVKKPGASVKVSCKASGFDIQDTYMHWVRQAPGQGLEWMGRIDPASGHIKYDPKFQKRVTMTRDTSTSTVYMELSSLRSEDTAVYYCARSGGLPDMWGQGTTVTVSSASTKGPSVFPLAPCSRSTSESTAALGCLVKDYFPEPVTVSWNSGALTSGVHTFPAVLQSSGLYSLSSVVTVPSSNFGTQTYTCNVDHKPSNTKVDKTVERKCCVECPPCPAPPVAGPSVFLFPPKPKDTLMISRTPEVTCVVVDVSHEDPEVQFNWYVDGVEVHNAKTKPREEQFNSTFRVVSVLTVVHQDWLNGKEYKCKVSNKGLPAPIEKTISKTKGQPREPQVYTLPPSREEMTKNQVSLTCLVKGFYPSDIAVEWESNGQPENNYKTTPPMLDSDGSFFLYSKLTVDKSRWQQGNVFSCSVMHEALHNHYTQKSLSLSPGK
light: B8 light with E91Q
B10: clone 23, IgG2 / kappa (antibody)
heavy: B9 heavy with I58L, K66N, M105K
light: B8 light
B11: clone 47, IgG2 / kappa (antibody)
heavy: B9 heavy with D52E, I58V, K66T, M105W
light: B8 light
B12: clone 34, IgG2 / kappa (antibody)
heavy: B9 heavy with D52E, K66G, M105W
light: B8 light
B13: Clone XL3-10 Fab (Fab, V domains shown)
VH: B1 VH with V66G, V68A, M70I, R72T, T76A, V79A, M81L, E82Q, K105F
VL: B1 VL with T96S
notes: Fab
B14: Clone XL3-15 Fab (Fab, V domains shown)
VH: B1 VH with V66G, V68A, M70I, R72T, T76A, V79A, M81L, E82Q, K105F
VL: B1 VL with G92R
notes: Fab
B15: Clone X-V Fab (Fab, V domains shown)
VH: B1 VH with V68A, M70I, R72T, T76A, V79A, M81L, E82Q, K105F
VL: B1 VL
notes: Fab
B16: Clone XL3-6 Fab (Fab, V domains shown)
VH: B1 VH with V66G, V68A, M70I, R72T, T76A, V79A, M81L, E82Q, K105F
VL: B1 VL with Q88S
notes: Fab
B17: Clone L3-13 Fab (Fab, V domains shown)
VH: B1 VH with V66G, V68A, M70I, R72T, T76A, V79A, M81L, E82Q, K105F
VL: B1 VL with S91K
notes: Fab

Where a chain is given by its changes, count along the chain named. Names and notes keep the numbering of the source.

TRAIL/TNFSF10 (R&D Systems, cat. no. 375-TL/CF), sequence (P50591 114-281 limits assumed): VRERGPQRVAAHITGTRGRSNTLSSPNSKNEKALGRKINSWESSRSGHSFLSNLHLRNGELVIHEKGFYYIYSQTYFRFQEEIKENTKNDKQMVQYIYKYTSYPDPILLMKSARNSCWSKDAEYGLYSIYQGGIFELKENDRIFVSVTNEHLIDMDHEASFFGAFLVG

In the first experiment the target is T1, human TL1A (Fitzgerald, Prod. #30R-AT070) (human, UniProt O95150 72-251, limits assumed, biotinylated with EZ-Link Sulfo-NHS-LC-Biotin where used as soluble antigen).
T1 construct: also called TNFSF15; biotinylated human TL1A
T1 sequence (looked up): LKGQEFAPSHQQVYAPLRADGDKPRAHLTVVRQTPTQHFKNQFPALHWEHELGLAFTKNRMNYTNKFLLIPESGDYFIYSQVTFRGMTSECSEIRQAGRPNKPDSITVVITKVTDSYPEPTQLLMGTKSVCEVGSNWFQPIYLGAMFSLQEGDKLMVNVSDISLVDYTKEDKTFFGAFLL
The experiment can be described thus: ELISA. On the technique in general: In an ELISA, binding on a coated surface is turned into a signal by an enzyme label.
For the molecule B1, the binding result is “binds”.

For the molecule B2, the binding result is “binds”.

With B3, the binding result is “binds”.

On to B4, for which the binding result is given as “binds”.

As to B5, the binding result is reported as “binds”.

As for B6, the binding result is reported as “binds”.

With B7, the binding result is reported as “binds”.

For a further experiment, the target named is T2, human TL1A (endogenous, human whole blood assay) (human, UniProt O95150 1-251, limits assumed).
T2 sequence (looked up): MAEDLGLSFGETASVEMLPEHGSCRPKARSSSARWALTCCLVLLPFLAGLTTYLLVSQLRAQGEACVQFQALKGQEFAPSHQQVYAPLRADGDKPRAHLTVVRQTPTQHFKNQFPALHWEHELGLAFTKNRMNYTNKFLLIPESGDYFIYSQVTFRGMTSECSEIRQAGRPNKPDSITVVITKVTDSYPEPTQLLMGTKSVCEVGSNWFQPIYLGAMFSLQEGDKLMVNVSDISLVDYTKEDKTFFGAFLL
The experiment can be described thus: cell-based or functional assay.
For the molecule B8, the “IC50, inhibition of IFN-γ production, human whole blood assay” value (from here on “IC50, inhibition of IFN-γ production”) is 1.26 nM.

As to B9, the “IC50, inhibition of IFN-γ production” value came to 0.35 nM.

Take B10: the “IC50, inhibition of IFN-γ production” value came out at 0.33 nM.

As for B11, the “IC50, inhibition of IFN-γ production” value amounted to 1.01 nM.

On to B12, for which the “IC50, inhibition of IFN-γ production” value amounted to 0.16 nM.

Another experiment concerns the target T3, membrane-associated human TL1A on transfected HEK293 cells (human, UniProt O95150 1-251).
T3 construct: whole, on cells
T3 sequence (looked up): T2 sequence (looked up)
The experiment can be described thus: flow cytometry, HEK293 cells transfected with human TL1A. The protocol: All the Fab variants were tested for binding to membrane-associated human TL1A. For these studies a HEK293 cell line that had been transfected with human TL1A was used. The 293 cells expressing membrane bound human TL1A were maintained in DMEM containing L-glutamine, glucose, sodium pyruvate, and phenol red (ThermoFisher cat #11995-065) plus 10% fetal bovine serum, 1X penicillin-streptomycin (Fisher cat #15140122) and 2 μg/ml puromycin (Gibco cat #A11138-03) in a 37° C. incubator with 5% CO2. Three days prior to the assay, a T-75 flask was seeded with 3×10⁶ cells so that the flask was 90-95% confluent on the day of the assay. The media was aspirated and the cell monolayer was gently washed with 5 ml PBS. Adherent cells were removed by repeatedly pipetting 10 ml ice cold 1% BSA/PBS against the monolayer. The cells were counted and 5×10⁵ were aliquoted for each sample to be analyzed. The cells were collected by centrifuging at 300× g at 4° C. for 5 minutes and the wash was discarded. The cells were resuspended in 100 μl Fab or IgG diluted in 1% BSA/PBS and placed on ice for 30 min. Next, the cells were washed with 1 ml 1% BSA/PBS and collected by centrifuging at 300× g at 4° C. for 5 min. The wash was discarded and 100 μl secondary goat F (ab′) 2 anti-human kappa FITC (Southern Biotech cat #2062-02) or goat F (ab′) 2 anti-human IgG PE (Southern Biotech cat #2043-09) conjugate, diluted 1:200 in BSA/PBS was added. Cells were placed on ice for 30 min. Finally, the cells were washed with 1 ml BSA/PBS, collected by centrifuging at 300× g at 4° C. for 5 min. The wash was removed and the cells were resuspended in 500 μl 1% BSA/PBS. One drop of Sytox AADvanced ReadyFlow Reagent (ThermoFisher cat #R37173) was added per sample and the samples were analyzed on the Attune NXT Flow Cytometer (ThermoFisher).
(In general: In flow cytometry, cells or beads pass a laser one at a time.)
As to B13, the binding result is recorded as “binds”.

Consider B14, for which the binding result is “binds”.

As for B15, the binding result is “binds”.

B16: the binding result is on record as “binds”.

Take B17: the binding result is “binds”.

The target of a further experiment is LIGHT/TNFSF14 (R&D Systems, cat. no. 664-LI/CF) (UniProt O43557 74-240). The experiment can be described thus: ELISA, antigen coated at 1 µg/ml, Fab titrated. The protocol: (§1) Next, all the Fab variants were characterized for their selectivity for human TL1A relative to other TNFSF members TRAIL, LIGHT and Fas. […] The plate was washed 3 times with PBS-T and blocked with 100 μl of 1% BSA/PBS. The block was discarded and the Fab variants or control antibodies (Fas/TNFSF6, R&D Systems, cat. no. AF126; TRAIL/TNFSF10, R&D Systems, cat. no. AF375; LIGHT/TNFSF14, R&D Systems, cat. no. AF664) were titrated in 50 μl 1% BSA/PBS and incubated for 1 h at 25° C. The plate was washed 3 times with PBS-T and secondary HRP-conjugated antibody (diluted 5,000-fold in 1% BSA/PBS) was added for 1 h at 25° C. The plate was washed 3 times with PBS-T and developed.
LIGHT/TNFSF14 (R&D Systems, cat. no. 664-LI/CF), sequence (O43557 74-240 limits assumed): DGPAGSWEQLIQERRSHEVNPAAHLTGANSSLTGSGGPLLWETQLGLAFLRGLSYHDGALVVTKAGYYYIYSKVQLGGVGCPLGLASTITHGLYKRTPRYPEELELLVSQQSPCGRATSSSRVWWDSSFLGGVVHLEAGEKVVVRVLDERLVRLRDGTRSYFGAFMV
For B13, the binding result is reported as “no binding”.

As to B14, the binding result is listed as “no binding”.

Take B15: the binding result is listed as “no binding”.

Turning to B16, the binding result is on record as “no binding”.

Regarding B17, the binding result is listed as “no binding”.

For another experiment, the target named is TRAIL/TNFSF10 (R&D Systems, cat. no. 375-TL/CF) (UniProt P50591 114-281). The experiment can be described thus: ELISA, antigen coated at 1 µg/ml, Fab titrated. Here is the method:
as §1
For the molecule B13, the binding result is on record as “no binding”.

Turning to B14, the binding result is listed as “no binding”.

Consider B15, for which the binding result was “no binding”.

For B16, the binding result was “no binding”.

Take B17: the binding result is “no binding”.

Another experiment addresses T4, Fas/TNFSF6 (R&D Systems, cat. no. 126-FL/CF) (UniProt P48023 134-281).
T4 sequence (looked up): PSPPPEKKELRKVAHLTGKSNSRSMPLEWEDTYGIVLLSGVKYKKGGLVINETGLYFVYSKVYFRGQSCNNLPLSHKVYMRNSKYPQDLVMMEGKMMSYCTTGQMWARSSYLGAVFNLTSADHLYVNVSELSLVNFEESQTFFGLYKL
The experiment can be described thus: ELISA, antigen coated at 1 µg/ml, Fab titrated. The protocol: as §1
With B13, the binding result is “no binding”.

On to B14, for which the binding result was “no binding”.

Consider B15, for which the binding result was “no binding”.

On to B16, for which the binding result is “no binding”.

Turning to B17, the binding result was “no binding”.

Another experiment concerns the target T1, human TL1A (Fitzgerald, Prod. …). The experiment can be described thus: two ELISA formats: Fab on coated TL1A; captured Fab with biotinylated TL1A. The protocol: Fabs with the CDRs shown in Tables 19 to 22 were tested for binding to human TL1A in multiple formats. Next, uniform (saturating) quantities of soluble Fab variants were captured on the surface of an ELISA plate and soluble, biotinylated human TL1A was titrated as shown in FIGS. 10 to 13.
As to B13, the binding result is “binds”.

In the case of B14, the binding result is given as “binds”.

B15: the binding result is “binds”.

As for B16, the binding result is listed as “binds”.

On to B17, for which the binding result is “binds”.
